This is an account of results in paper PMC3561105, “A Quartet of PIF bHLH Factors Provides a Transcriptionally Centered Signaling Hub That Regulates Seedling Morphogenesis through Differential Expression-Patterning of Shared Target Genes in Arabidopsis”.

Changes are numbered by the printed parent chain.

To fix the notation:
T1: GST-PIF3-Flag (Arabidopsis thaliana, UniProt O80536 1-524)
T1 sequence: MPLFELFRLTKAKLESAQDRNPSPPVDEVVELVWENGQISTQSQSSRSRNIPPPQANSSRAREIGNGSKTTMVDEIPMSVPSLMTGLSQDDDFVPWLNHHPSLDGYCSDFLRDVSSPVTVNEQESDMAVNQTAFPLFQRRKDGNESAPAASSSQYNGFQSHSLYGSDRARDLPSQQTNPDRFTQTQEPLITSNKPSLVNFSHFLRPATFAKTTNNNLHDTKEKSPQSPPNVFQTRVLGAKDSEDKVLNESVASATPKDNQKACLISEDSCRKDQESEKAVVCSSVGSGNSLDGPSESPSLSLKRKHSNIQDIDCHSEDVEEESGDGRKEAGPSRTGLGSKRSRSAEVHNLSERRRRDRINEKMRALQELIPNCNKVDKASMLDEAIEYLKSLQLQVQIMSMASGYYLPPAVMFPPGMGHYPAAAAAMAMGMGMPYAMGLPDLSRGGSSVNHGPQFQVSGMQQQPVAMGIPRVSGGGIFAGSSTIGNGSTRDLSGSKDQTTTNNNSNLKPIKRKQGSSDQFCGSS

B1: ATHB-2 (HB2) WT (dsDNA)
DNA 1: GGGTCAGATCCACGTGAAGTTCACATGCTTTCCATGC
DNA 2: GCATGGAAAGCATGTGAACTTCACGTGGATCTGACCC
B2: PIL1b WT (dsDNA)
DNA 1: ACGCGGCATTCACGTGAAGTGCACGTGAACTTGGCCA
DNA 2: TGGCCAAGTTCACGTGCACTTCACGTGAATGCCGCGT
B3: RGA1 WT (dsDNA)
DNA 1: GACCCATTAACACGTGGATCCATCACGTGCTGTCAGTTT
DNA 2: AAACTGACAGCACGTGATGGATCCACGTGTTAATGGGTC
B4: IBH1 WT (dsDNA)
DNA 1: AGGCCATAGCCATGTGCCTTCATGTGGTGGTTGGCC
DNA 2: GGCCAACCACCACATGAAGGCACATGGCTATGGCCT
B5: AT4G30410 (bHLH159) WT (dsDNA)
DNA 1: ATAGGAGAAGCACATGCATGCACATGCTACGAATGG
DNA 2: CCATTCGTAGCATGTGCATGCATGTGCTTCTCCTAT
B6: IAA2 WT (dsDNA)
DNA 1: TGAGGCCGCCCATGTGGACACGACTC
DNA 2: GAGTCGTGTCCACATGGGCGGCCTCA
B7: PHYB WT (dsDNA)
DNA 1: ACCATTAGCCCACGTGATCTTGGGCC
DNA 2: GGCCCAAGATCACGTGGGCTAATGGT
B8: HB2 mut4 (G-box and PBE-box) (dsDNA)
DNA 1: B1 DNA 1 with T15G, A23C
DNA 2: B1 DNA 2 with T15G, A23C
B9: HB2 mut2 (G-box) (dsDNA)
DNA 1: B1 DNA 1 with T15G
DNA 2: B1 DNA 2 with A23C
B10: HB2 mut5 (PBE-box) (dsDNA)
DNA 1: B1 DNA 1 with A23C
DNA 2: B1 DNA 2 with T15G
B11: RGA1 mut2 (1st G-box) (dsDNA)
DNA 1: B3 DNA 1 with T15G
DNA 2: B3 DNA 2 with A25C
B12: RGA1 mut3 (2nd G-box) (dsDNA)
DNA 1: B3 DNA 1 with T28G
DNA 2: B3 DNA 2 with A12C
B13: PIL1b mut2 (1st G-box) (dsDNA)
DNA 1: B2 DNA 1 with T15G
DNA 2: B2 DNA 2 with A23C
B14: PIL1b mut3 (2nd G-box) (dsDNA)
DNA 1: B2 DNA 1 with T26G
DNA 2: B2 DNA 2 with A12C

One data set addresses T1, GST-PIF3-Flag. The data set can be described thus: EMSA; DPI-ELISA: TBS-T (20 mM Tris-HCl pH 7.5, 180 mM NaCl, 0.1% Tween 20), 5% milk block, 2 pmol probe/well, 100 ng protein, 1 h, competitor 2/10/50 pmol; EMSA: 100. Particulars: protein: recombinant, tags: N-term GST, chain copies: 2, label: 5' biotin on one strand (probe), blunt. (In general: Mobility shift assays separate free from complexed probe on a gel.)
On to B1, for which the binding result is reported as “binds”.
As for B2, the binding result is reported as “binds”.

For the next data set, the target named is T1, GST-PIF3-Flag. As to the kind of experiment: DPI-ELISA; DPI-ELISA: TBS-T (20 mM Tris-HCl pH 7.5, 180 mM NaCl, 0.1% Tween 20), 5% milk block, 2 pmol probe/well, 100 ng protein, 1 h, competitor 2/10/50 pmol; EMSA: 100. Particulars: protein: recombinant, tags: N-term GST, chain copies: 2, label: 5' biotin on one strand (probe), blunt.
Regarding B3, the binding result was “binds”.
B4: the binding result was “binds”.
As to B5, the binding result is given as “binds”.
Regarding B6, the binding result is “binds”.
Still for that read-out and setting: in the case of B7 it was “binds”.

Another data set addresses T1, GST-PIF3-Flag. The data set can be described thus: competition; EMSA; no competition; DPI-ELISA: TBS-T (20 mM Tris-HCl pH 7.5, 180 mM NaCl, 0.1% Tween 20), 5% milk block, 2 pmol probe/well, 100 ng protein, 1 h, competitor 2/10/50 pmol; EMSA: 100. Particulars: protein: recombinant, tags: N-term GST, chain copies: 2, blunt.
B8: the binding result was “no binding”.
Consider B9, for which the binding result is given as “no binding”.

A further data set concerns the target T1, GST-PIF3-Flag. As to the kind of experiment: competition; EMSA; competes similar to WT; DPI-ELISA: TBS-T (20 mM Tris-HCl pH 7.5, 180 mM NaCl, 0.1% Tween 20), 5% milk block, 2 pmol probe/well, 100 ng protein, 1 h, competitor 2/10/50 pmol; EMSA: 100. Particulars: protein: recombinant, tags: N-term GST, chain copies: 2, blunt.
With B10, the binding result is “binds”.
The same measure, in the same setting: in the case of B11 it was “binds”.
With B12, the binding result was “binds”.
Consider B13, for which the binding result was “binds”.
Still for that read-out and setting: next, B14: “binds”.
